Experimental data published in paper PMC5181682 (Nucleic Acids Research, 2016).

B1: PCNA:TIP peptide complex (1:1) (complex)
chain: MPFEVVFDGAKEFADLIATASNLIDEAAFKFTEEGISMRAMDPSRVVLIDLNLPESIFSKYEVEEPETIGINMDQFKKILKRGKAKDTLILRKGDENFLEITFEGTAKRTFRLPLIDVEELELELPELPFTAKVVLLGEVLKEGIKDASLVSDAIKFIAKENEFTMKAEGETNEVEIRLTLEDEGLLDLEVEEETKSAYGIRYLSDMVKGIGKADEVILRFGNEMPLQMEYMIRDEGRLTFLLAPRVEE
peptide: RLKPTSLDSFLPEEHINYFRDLRIGSKKIRNAKIEEL
B2: Proliferating cell nuclear antigen (PCNA1) of Thermococcus kodakarensis (natural protein)
chain: B1 chain
B3: TIP (Thermococcales inhibitor of PCNA), full length (natural protein, T. kodakarensis, UniProt Q5JH72 1-64, looked up)
chain: MDRKLDEFIGDATPKKVSKEKPVRRKKRLKPTSLDSFLPEEHINYFRDLRIGSKKIRNAKIEEL

Columns and labels:
[1] = molecular target: the molecule itself; test: SAXS; PCNA:TIP peptide complex at 6.4, 4.8, 4.1 and 2.1 mg/ml, purified by SEC, 50 mM Tris-HCl pH 7.3, 200 mM NaCl, room temperature; fit to a two-member ensemble (1:1 Model A and 2:2 Model C); 2:2 form to 1:1 complexes
[2] = molecular target: the molecule itself; test: SAXS; free PCNA in 50 mM Tris-HCl pH 7.3, 200 mM NaCl, room temperature; fit to the crystal structure PDB 3LX1
[3] = molecular target: B2; test: crystal structure; PCNA with TIP peptide (residues 28-64); same space group as PCNA:TIP; 3.4 Å; conditions: both partners purified
[4] = molecular target: B2; test: crystal structure; PCNA with full length TIP, ratio about 1:1.2, hanging drop; well 1.2 M ammonium sulfate, 50 mM sodium citrate pH 4.0, 10% glycerol; 2.8 Å; conditions: both partners purified
[5] = molecular target: B2; test: crystal structure; PCNA with FEN-1 peptide, ratio about 1:5, sitting drop; well 2.8 M ammonium sulfate, 100 mM citric acid pH 5.3, 10% PEG 4000; 2.0 Å; conditions: both partners purified

B1
Kd [1]: ~100 µM | stoichiometry N [1]: 2

B2
stoichiometry N [2]: 3

RLKPTSLDSFLPEEHINYFRDLRIGSKKIRNAKIEEL (peptide, UniProt Q5JH72 28-64, looked up) [TIP peptide (residues 28-64)]
binding result [3]: binds

B3
binding result [4]: binds

KQRTLESWFGR (peptide, UniProt Q5JGN0 330-340, looked up) [flap endonuclease 1 (FEN-1) peptide (residues 330-340)]
binding result [5]: binds
